# From US20250313648A1, “Binders of Chondroitin Sulfate Proteoglycan (CSPG4) Polypeptides” (Regents of the University of Minnesota, priority 2021, published 2025)
# How the values were obtained:
# [1] = tested on: EOC cells (HEY, A2780, ES-2); assay: Spheroid formation / cell growth assay in 1% methylcellulose with antibody; assay type: cell-based, human; details: CSPG4 expressing mock transfected EOC cells, 50 μg/ml antibody
# Procedure: (§1) FIGS. 10A-10D. Anti-CSPG4 antibody 7H5A2 inhibits Zeb1 expression and FAK activation, cell invasion and spheroid formation. FIG. 10A) Western blot for pFAK, FAK, and ZEB1 in EOC cells plated in 1% methylcellulose in the presence of 50 μg/ml normal mouse IgG1 (nmIgG1) or anti-CSPG4 antibody 7H5A2 cultured in suspension for 24 hours. FIG. 10B) Invasion assay using HEY cells pre-incubated with control (nm IgG1) or anti-CSPG4 (763.74 and 7H5A2) antibodies at 50 μg/ml for 2 hours and then plated in invasion chambers in the presence of the antibody in the top chamber only for 24 hours. Bars represent the total number of invading cells counted in five random fields/well from duplicate wells, +/−S.D. P values determined by student's t-test with Welch's correction. n=6 from 3 separate experiments. FIG. 10C) Cell growth assay using EOC cells plated in the presence of the indicated antibodies at 50 μg/ml in 1% methylcellulose for 7 days (HEY) or 14 days (A2780 and ES-2). Cells were collected from methylcellulose culture at those time points, and re-plated overnight in normal growth media in tissue culture plates. The following day all cells were collected from each well and counted. P values determined by student's t-test with Welch's correction, comparing live cell numbers (determined by trypan blue exclusion) from each condition, n=4. […]
# [2] = tested on: FAK activation and ZEB1 expression in EOC cells; assay: Western blot for pFAK, FAK and ZEB1 in EOC cells plated in 1% methylcellulose with antibody; assay type: cell-based, human; details: 50 μg/ml antibody vs normal mouse IgG1, suspension culture 24 hours, all three cell lines
# Procedure: as §1
# [3] = molecular target: T1, CSPG4 (Homo sapiens, UniProt Q6UVK1); assay: Specificity of antibody by western blot of CSPG4 wild type and knockout cell lysates and immunofluorescence cell staining; assay type: binding; details: western blot of mock and CSPG4-CRISPR cell lines; immunofluorescence of HEY parent cells
# T1 construct: screening against CSPG4 wild type and knockout cell lysates via western blot and cell staining via immunofluorescence; endogenous in cells; host or cells: HEY, ES-2 and A2780 human ovarian cancer cell lines (parent/mock cells, with CSPG4-CRISPR knockouts as negative control)
# Procedure: FIGS. 1A-1D. Antibody 7H5A2 targets CSPG4. FIG. 1A) Amino acid sequence of recombinant protein target used to generate antibody 7H5A2 (SEQ ID NO:34). Black text denotes CSPG4 region (SEQ ID NO:33), the lighter gray text corresponds to human FC sequence for protein purification. […]) Western blot with CSPG4 antibodies 763.74 (FIG. 1B) and 7H5A2 (FIG. 1C). Cells are harvested in lysis buffer and 40 μg protein was loaded in each well from the indicated mock and CSPG4-CRISPR cell lines. Alpha-tubulin is included as a loading control. FIG. 1D) Immunofluorescence staining of HEY parent cells with antibody 7H5A2. Red bar=10 μm. Magnification 600×.
# Western blot: Western blots were performed using standard methods as described previously by Yang, et al., Cancer Res. 69(19):7538-47 (2009). […]
# Generation of novel CSPG4 antibody: CSPG4-specific mouse monoclonal antibody 7H5A2 was generated by Promab Biotechnologies Inc (Richmond, CA) by injection of a recombinant CSPG4 protein immunogen corresponding to aa 1538-2221 of the CSPG4 core protein extracellular domain, expressed and purified from a eukaryotic expression system (see FIG. 1A). The specificity of the antibody was determined by screening against CSPG4 wild type and knockout cell lysates via western blot and cell staining via immunofluorescence (see FIGS. 1B and 1C). […]
# [4] = tested on: HEY cells; assay: Matrigel invasion assay with antibody pre-incubation; assay type: cell-based, human; details: 50 μg/ml antibody, 2 hours pre-incubation, 24 hours, inhibition greater than with antibody 763.74
# Procedure: as §1
# T1 sequence (Q6UVK1 30-2322): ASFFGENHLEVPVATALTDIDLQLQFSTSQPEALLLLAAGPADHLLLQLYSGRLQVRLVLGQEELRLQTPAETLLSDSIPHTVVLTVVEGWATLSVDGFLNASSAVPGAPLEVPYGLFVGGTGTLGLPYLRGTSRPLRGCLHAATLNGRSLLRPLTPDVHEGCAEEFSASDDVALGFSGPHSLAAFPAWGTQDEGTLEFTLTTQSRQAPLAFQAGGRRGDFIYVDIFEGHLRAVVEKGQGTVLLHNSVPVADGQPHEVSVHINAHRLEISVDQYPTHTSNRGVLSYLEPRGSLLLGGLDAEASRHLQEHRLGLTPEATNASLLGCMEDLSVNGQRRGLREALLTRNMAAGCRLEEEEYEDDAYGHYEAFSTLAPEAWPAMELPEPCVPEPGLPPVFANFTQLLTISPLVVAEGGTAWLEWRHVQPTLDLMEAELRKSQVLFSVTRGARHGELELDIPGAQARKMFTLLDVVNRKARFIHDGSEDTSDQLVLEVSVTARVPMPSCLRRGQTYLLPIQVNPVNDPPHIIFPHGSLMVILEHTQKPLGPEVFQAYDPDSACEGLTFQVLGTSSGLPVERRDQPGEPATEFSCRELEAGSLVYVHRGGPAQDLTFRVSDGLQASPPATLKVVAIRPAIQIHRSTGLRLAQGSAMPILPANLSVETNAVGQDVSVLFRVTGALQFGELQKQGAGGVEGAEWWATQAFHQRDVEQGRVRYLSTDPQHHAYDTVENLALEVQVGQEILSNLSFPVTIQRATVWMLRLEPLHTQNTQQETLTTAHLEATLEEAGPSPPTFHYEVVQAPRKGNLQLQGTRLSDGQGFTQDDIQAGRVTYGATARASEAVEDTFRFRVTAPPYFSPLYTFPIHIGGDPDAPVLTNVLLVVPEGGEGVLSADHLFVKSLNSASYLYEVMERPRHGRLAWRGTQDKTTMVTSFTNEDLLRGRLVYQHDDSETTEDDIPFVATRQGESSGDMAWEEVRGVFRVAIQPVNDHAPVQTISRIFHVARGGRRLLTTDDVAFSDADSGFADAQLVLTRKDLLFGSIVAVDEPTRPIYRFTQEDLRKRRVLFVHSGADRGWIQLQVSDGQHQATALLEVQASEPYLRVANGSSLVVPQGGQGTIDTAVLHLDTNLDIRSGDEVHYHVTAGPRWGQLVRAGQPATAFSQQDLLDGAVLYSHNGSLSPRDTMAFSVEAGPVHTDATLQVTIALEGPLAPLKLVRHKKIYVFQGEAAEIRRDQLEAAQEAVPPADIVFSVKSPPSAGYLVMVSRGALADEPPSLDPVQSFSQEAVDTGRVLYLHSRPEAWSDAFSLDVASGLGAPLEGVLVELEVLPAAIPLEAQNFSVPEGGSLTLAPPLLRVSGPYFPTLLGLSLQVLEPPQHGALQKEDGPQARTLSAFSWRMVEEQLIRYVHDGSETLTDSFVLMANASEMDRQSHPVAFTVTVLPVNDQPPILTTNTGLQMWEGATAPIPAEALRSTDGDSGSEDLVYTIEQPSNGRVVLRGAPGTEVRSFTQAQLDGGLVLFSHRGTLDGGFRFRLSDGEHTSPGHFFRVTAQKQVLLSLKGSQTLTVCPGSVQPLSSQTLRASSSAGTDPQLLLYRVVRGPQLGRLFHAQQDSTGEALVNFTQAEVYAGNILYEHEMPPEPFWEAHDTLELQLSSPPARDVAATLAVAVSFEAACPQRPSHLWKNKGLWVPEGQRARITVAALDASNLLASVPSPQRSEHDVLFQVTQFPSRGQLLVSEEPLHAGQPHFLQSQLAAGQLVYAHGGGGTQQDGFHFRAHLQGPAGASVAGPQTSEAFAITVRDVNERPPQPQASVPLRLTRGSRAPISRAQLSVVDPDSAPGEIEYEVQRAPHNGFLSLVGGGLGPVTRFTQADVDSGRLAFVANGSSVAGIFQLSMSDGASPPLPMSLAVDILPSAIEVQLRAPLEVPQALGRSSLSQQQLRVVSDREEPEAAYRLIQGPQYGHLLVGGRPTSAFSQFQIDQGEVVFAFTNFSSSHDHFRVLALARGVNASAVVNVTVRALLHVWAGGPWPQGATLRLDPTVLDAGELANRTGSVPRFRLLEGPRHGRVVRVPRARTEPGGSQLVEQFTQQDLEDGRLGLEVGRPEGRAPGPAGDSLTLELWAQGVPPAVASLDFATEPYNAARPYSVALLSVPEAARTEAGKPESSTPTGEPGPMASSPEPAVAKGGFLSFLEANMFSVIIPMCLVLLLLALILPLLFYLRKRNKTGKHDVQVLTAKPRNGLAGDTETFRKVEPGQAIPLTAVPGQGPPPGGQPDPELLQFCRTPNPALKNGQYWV
molecule,measurement,setting,value
"7H5A2: CSPG4-specific mouse monoclonal antibody, isotype IgG1; heavy chain variable SEQ ID NO:8, light chain variable SEQ ID NO:16 (antibody, V domains shown) VH: QVQLQQSGAELVRPGSSVKISCKASGFAFSNYWMNWVKQRPGQGLEWIGQIFPGDGDTNYNGKFKGKATLTADKSSSTAYMQLISLTSEDSAVYFCVRESDWGRGTTLTVSS VL: DIQMTQTTSSLSASLGDRVTISCSASQGINNYLNWYQQTPDGTVKLLIFYTSSLQSGVPSRFSGSGSGTDYSLTISNLEPEDIATYYCQQYSKLPFTFGSGTKLEIKR",spheroid formation,[1]; 7 days (HEY) or 14 days (A2780 and ES-2),significantly inhibited
same,EOC cell survival,[1]; live cell numbers by trypan blue exclusion,significantly inhibited
same,ZEB1 expression,[2],inhibited
same,activation of FAK,[2],inhibited
same,recognition of CSPG4 on the cell surface,[3],specifically recognizes CSPG4 on the cell surface
same,EOC invasion,[4],significantly inhibited
